Measurements as given in IntAct's records for PubMed 19940251.

B1: DNA replication regulator protein HobA (Helicobacter pylori), O25828 (parent)
chain: MKNFYDWIKEFVRDQGEFIAQQSGWLELERSSYAKLIAQTISHVLNGGSLLVSADSSRHWFLNYILSNLNPKDLKERPLLSVIDFNASSFYPKNDANLSLATIEMTYQNPMFWHVGKIENEGLKTILLSKIPSFLWLFEELKEDCLLLKEHDSLLDYKLLQLFKLFENALFSVLYNKVTL
partner: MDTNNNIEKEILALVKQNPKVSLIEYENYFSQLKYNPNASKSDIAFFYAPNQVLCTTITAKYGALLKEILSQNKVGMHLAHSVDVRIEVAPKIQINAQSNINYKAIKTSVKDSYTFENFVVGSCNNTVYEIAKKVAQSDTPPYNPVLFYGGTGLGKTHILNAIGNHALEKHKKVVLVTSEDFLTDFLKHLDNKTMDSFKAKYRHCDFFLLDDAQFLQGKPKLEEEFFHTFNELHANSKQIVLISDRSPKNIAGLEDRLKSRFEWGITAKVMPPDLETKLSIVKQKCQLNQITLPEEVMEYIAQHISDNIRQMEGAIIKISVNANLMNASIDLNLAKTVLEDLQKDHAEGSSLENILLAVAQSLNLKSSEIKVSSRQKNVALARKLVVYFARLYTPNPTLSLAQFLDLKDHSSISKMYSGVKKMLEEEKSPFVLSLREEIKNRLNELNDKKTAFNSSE

Variants of: B1
Details: with dnaa_helpy dnaA

Row | Variant | effect of a mutation on the interaction
1 | F112S | disrupting interaction
2 | I41T | disrupting interaction
3 | L146S | disrupting interaction
4 | D55G | disrupting interaction
5 | S99P | decreasing interaction
6 | H43R | disrupting interaction
7 | F61C | disrupting interaction
8 | V82A | decreasing interaction
9 | L174P | disrupting interaction
10 | R77C | decreasing interaction
11 | V44A | decreasing interaction
12 | I118T | disrupting interaction
13 | M111V | decreasing interaction
14 | E119G | disrupting interaction
15 | I83M | decreasing interaction
16 | L51F | decreasing interaction
17 | F138L | disrupting interaction strength
18 | F138S | disrupting interaction strength
19 | A169V | disrupting interaction
20 | L162P | disrupting interaction
21 | L170P | disrupting interaction
22 | V115D | disrupting interaction
23 | L141P | disrupting interaction
24 | L128P | disrupting interaction
25 | Y107H | decreasing interaction
26 | L45P | disrupting interaction
27 | S67P | disrupting interaction

Variants of: B1
Details: with dnaa_helpy dnaA
Remark: another data set of the same source

Row | Variant | effect of a mutation on the interaction
28 | E76A;R77A;P78A | disrupting interaction
29 | L80R | disrupting interaction
30 | Y175E | disrupting interaction

Variants of: B1
Details: with dnaa_helpy dnaA
Remark: another data set of the same source

Row | Variant | effect of a mutation on the interaction
31 | L127P | disrupting interaction
32 | H43R | decreasing interaction
33 | L137P | decreasing interaction
34 | L69P | disrupting interaction
35 | F166S | decreasing interaction
36 | L51S | disrupting interaction strength
37 | L51F | disrupting interaction strength
38 | S88P | disrupting interaction
39 | F138S | decreasing interaction
40 | S67P | decreasing interaction
